According to paper PMC8463877, “The binding of the small heat-shock protein αB-crystallin to fibrils of α-synuclein is driven by entropic forces” (Proceedings of the National Academy of Sciences of the …, 2021):

How the values were obtained:
Conditions in all cases: both partners purified
[1] = molecular target: T1, α-synuclein amyloid fibrils (unlabeled) (UniProt P37840 1-140); test: microfluidic diffusional sizing; kinetics in free solution, 1 μM GFP-αB-c with 10 μM α-syn fibrils, 20 °C, PBS pH 7.2, 0.1 % NaN3; apparent constants, KD from koff/kon
[2] = molecular target: T1, α-synuclein amyloid fibrils (unlabeled); test: microfluidic diffusional sizing; kinetics in free solution, 1 μM GFP-αB-c with 10 μM α-syn fibrils, 25 °C, PBS pH 7.2, 0.1 % NaN3; aliquots over 50 to 150 h; second-order rate equation; apparent constants, KD from koff/kon, per monomer equivalent of αB-c
[3] = molecular target: T1, α-synuclein amyloid fibrils (unlabeled); test: microfluidic diffusional sizing; global analysis of the kinetics at 7, 10, 17, 20, 25, 30 and 37 °C: binding-site concentration fitted globally; nonlinear van't Hoff analysis of KD,app, reference temperature 310 K (37 °C value not used)
[4] = molecular target: T1, α-synuclein amyloid fibrils (unlabeled); test: microfluidic diffusional sizing; equilibrium titration, 1 to 100 μM α-syn fibrils with 1 μM αB-c, 25 °C, 3 d, PBS pH 7.2, 0.1 % NaN3; noncooperative single-site model, binding-site ratio 1:5.4 fixed; apparent
[5] = molecular target: T1, α-synuclein amyloid fibrils (unlabeled); test: microfluidic diffusional sizing; dissociation of bound αB-c followed in a saturated α-syn fibril solution at 7 °C
[6] = molecular target: T1, α-synuclein amyloid fibrils (unlabeled); test: microfluidic diffusional sizing; kinetics in free solution, 1 μM GFP-αB-c with 10 μM α-syn fibrils, 7 °C, PBS pH 7.2, 0.1 % NaN3; koff calculated from the association kinetics

B1: GFP-labeled αB-crystallin (αB-c-TEV site-GFP-His tag) (natural protein)
chain: MDIAIHHPWIRRPFFPFHSPSRLFDQFFGEHLLESDLFPTSTSLSPFYLRPPSFLRAPSWFDTGLSEMRLEKDRFSVNLDVKHFSPEELKVKVLGDVIEVHGKHEERQDEHGFISREFHRKYRIPADVDPLTITSSLSSDGVLTVNGPRKQVSGPERTIPITREEKPAVTAAPKK
notes: αB-crystallin, small heat-shock protein; Arrangement as printed: αB-c-TEV site-GFP-His tag; a TEV site lies between αB-c and GFP; Present as a polydisperse ensemble of oligomers; concentrations are in monomer equivalents; also called αB-c-GFP; small heat-shock protein αB-crystallin; not shown: GFP, C-terminal, kept
Kd [1]: 4100 ± 1700 nM
Kd [2]: 373 ± 238 nM
koff [2]: 2.7e-06 s⁻¹
kon [2]: 7.1 ± 2.6 M⁻¹ s⁻¹
dH [3]: 443 ± 107 kJ⋅mol^−1
stoichiometry N [3]: 5.4 α-syn equivalents per αB-c equivalent
Kd [4]: 261 ± 76 nM
koff [5]: 5.6e-05 s⁻¹
koff [6]: 2.6e-05 s⁻¹
